Assay results: the supplement of paper PMC9732359
± gives the uncertainty stated by the source.

Test: protein stability index of a GFP-peptide fusion (yeast GPS) (PSI 1-4); higher = more stable; sorted into four equal gates, so the index is relative within each strain
Procedure, shortened: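 Tiled yeast protein peptides of 17 residues were each joined downstream of GFP, on plasmids that also express Cherry. The pooled library was maintained in yeast, and mid-log cultures in leucine-free medium were sorted into four equal gates on the GFP/Cherry ratio. Plasmids from every gate were amplified by PCR and sequenced on Illumina, with barcodes linking reads to strains. The protein stability index of a peptide is its gate-number-weighted read frequency summed over the gates.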

Sequence | protein stability index (doa10∆) | protein stability index (pdr5∆) | protein stability index (san1∆) | protein stability index (ubr1∆)
DPNEVEIKKLLATNSLV [DIS3] | 2.19 ± 0.049 | 1.82 ± 0.048 | 2.35 ± 0.057 | 2.29 ± 0.046
NDSSATRSWRPPQAGDR [RPB8] | 3.06 ± 0.26 |  |  | 2.76 ± 0.26
RYLDNLKQEIDRGLSIK [SNU114] | 3.02 ± 0.15 | 2.9 ± 0.17 | 3.4 ± 0.18 | 2.97 ± 0.082
LLVDIQKYNQIQKQIET [SMC2] | 1.92 ± 0.055 | 1.86 ± 0.05 | 2.2 ± 0.081 | 1.65 ± 0.04
AKPDNLANFSNEVAMNN [SWP82] | 3.22 ± 0.082 | 3.21 ± 0.078 | 3.13 ± 0.052 | 3.23 ± 0.067
LSKLEKALDRHEFFIAN [SRP68] | 2.66 ± 0.055 | 2.61 ± 0.045 | 2.55 ± 0.049 | 2.64 ± 0.047
VLKKKNIQKKQPAKEKG [RRP6] | 3 ± 0.085 | 3.03 ± 0.067 | 3.09 ± 0.042 | 3.22 ± 0.044
MKLNISYPVNGSQKTFE [RPS6A] | 2.65 ± 0.17 | 2.77 ± 0.12 | 2.79 ± 0.12 | 2.94 ± 0.13
LAMVIIKEFVDDLKKDH [DSN1] | 2.74 ± 0.2 | 2.92 ± 0.16 | 2.88 ± 0.12 | 2.85 ± 0.085
SLDTLELESITESITHD [NUT1] | 2.57 ± 0.063 | 2.42 ± 0.046 | 2.76 ± 0.059 | 2.34 ± 0.035
KELESIDVLLEQTTGGN [RPB4] |  |  |  | 3.22 ± 0.26
WASKYGQEYPRIIGLSA [BRR2] | 1.47 ± 0.073 | 2.32 ± 0.089 | 1.87 ± 0.085 | 1.93 ± 0.052
SVEWMKVSPSMCGVIVK [SIN4] | 1.74 ± 0.055 | 1.69 ± 0.051 | 1.69 ± 0.091 | 1.54 ± 0.063
PYGVYHPPFIKYACLAI [SIN4] | 1.42 ± 0.048 | 1.44 ± 0.04 | 1.46 ± 0.073 | 1.17 ± 0.034
TKFLAKNGVIPEESKGS [SWP82] | 3.19 ± 0.096 | 3.16 ± 0.11 | 2.98 ± 0.15 | 3.45 ± 0.13
ETPNQDATYDSALELVG [RPN6] | 2.62 ± 0.088 | 2.86 ± 0.072 | 2.61 ± 0.081 | 2.6 ± 0.1
SKNLGEINTALNTLLVT [SWI1] | 1.23 ± 0.077 | 1.79 ± 0.054 | 1.57 ± 0.11 | 1.46 ± 0.066
VGGCKDQIEKLREVVEL [RPT1] | 3.37 ± 0.071 | 3.4 ± 0.063 | 3.4 ± 0.048 | 3.33 ± 0.061
NNIIRIQQLISQFLKRV [SNF11] | 2.1 ± 0.039 | 2.14 ± 0.057 | 2.13 ± 0.065 | 2.3 ± 0.045

Sequence | protein stability index (doa10∆) | protein stability index (pdr5∆) | protein stability index (san1∆) | protein stability index (ubr1∆)
ANSQIQAYEEIISSNEN [YIL149C/MLP2] | 2.95 ± 0.19 | 3.46 ± 0.17 | 3.31 ± 0.22 | 3.45 ± 0.12
DKKQQTIDEQSQISPEK [RPN1] | 3.29 ± 0.11 | 3.46 ± 0.11 | 3.4 ± 0.063 | 3.26 ± 0.046
NTEQGDSDELGGESMEG [SNM1] | 3.45 ± 0.1 | 3.54 ± 0.11 | 3.4 ± 0.093 | 3.39 ± 0.085
PGSVNSAAKYKDMKLLR [NUT1] | 2.89 ± 0.11 | 2.87 ± 0.12 | 2.73 ± 0.13 | 2.96 ± 0.085
MAISKNLPILKNHFRKH [RPL13A] | 2.89 ± 0.1 | 2.89 ± 0.079 | 2.87 ± 0.081 | 2.54 ± 0.19
NPTEFDWPTYVDQNPLT [SRB8] | 2.85 ± 0.068 | 2.44 ± 0.043 | 2.69 ± 0.054 | 2.19 ± 0.046
SIIKAKLPLLNESLIPL [YML103C/NUP188] | 1.68 ± 0.06 | 2.18 ± 0.067 | 1.84 ± 0.082 | 1.99 ± 0.05
MSDVEEVVEVQEETVVE [RPS12] | 3.15 ± 0.1 | 3.36 ± 0.11 | 2.89 ± 0.084 | 3.12 ± 0.12
IYDFPGTPEATKGMITN [NUT2] | 2.54 ± 0.11 | 2.54 ± 0.11 | 2.98 ± 0.15 | 3.3 ± 0.086
MGPLSNIAQMIPGMSNM [SRP54] | 2.49 ± 0.049 | 2.75 ± 0.045 | 2.58 ± 0.048 | 2.69 ± 0.04
FIEVRNFLGDKKIRNVP [RPL9A] |  |  |  | 3.16 ± 0.12
IAYSDSQSSNANICLTF [SIN4] | 2.74 ± 0.1 | 2.7 ± 0.065 | 2.38 ± 0.081 | 2.89 ± 0.069
FHIGYFKATIQILQGIC [RPO31] | 1.39 ± 0.042 | 1.48 ± 0.035 | 1.72 ± 0.062 | 1.54 ± 0.036
QPGYADLEHKEDCVEEF [QCR6] | 2.42 ± 0.058 | 2.56 ± 0.068 | 2.52 ± 0.074 | 2.68 ± 0.044
LTNEISDLKGKLSSAEN [YIL149C/MLP2] | 3.38 ± 0.22 | 3.29 ± 0.13 |  | 3.32 ± 0.18
HDLLQIIHFHSHPEKRM [SSN3] | 2.62 ± 0.053 | 2.71 ± 0.053 | 2.65 ± 0.046 | 2.79 ± 0.039
LRHMPLASIPDIFITPT [SSN2] | 1.78 ± 0.054 | 1.69 ± 0.054 | 1.47 ± 0.068 | 1.61 ± 0.043
VPAVVDDPLENMFGDYS [SNF6] | 3.09 ± 0.14 | 3.48 ± 0.12 | 2.85 ± 0.17 | 3.35 ± 0.11
DYSINSRYEPKVFDCGD [PRE7] | 2.73 ± 0.076 | 2.59 ± 0.053 | 2.9 ± 0.068 | 2.59 ± 0.063

Sequence | protein stability index (doa10∆) | protein stability index (pdr5∆) | protein stability index (san1∆) | protein stability index (ubr1∆)
SYPVNGSQKTFEIDDEH [RPS6A] | 2.98 ± 0.13 | 2.72 ± 0.12 | 2.81 ± 0.12 | 2.99 ± 0.12
VASLVLARGHRVEKIPE [RPL4A] |  | 3.4 ± 0.24 |  | 
QEMIEISNVIKPNQTIM [SRP54] | 2.62 ± 0.23 | 2.21 ± 0.079 |  | 1.96 ± 0.1
KMIILDKLLKRLKEKGS [ISW2] | 1.58 ± 0.049 | 1.32 ± 0.061 | 1.35 ± 0.12 | 1.44 ± 0.055
ENLEESFLSKHALYLAP [SSN2] | 3.12 ± 0.056 | 3.31 ± 0.065 | 3.26 ± 0.044 | 3.28 ± 0.05
INLRKVAEKMNGCSGAD [RPT6] | 2.45 ± 0.15 | 2.25 ± 0.28 | 2.38 ± 0.13 | 3.07 ± 0.29
SLSFGSGSAGANPAGAS [YJL041W/NSP1] | 2.92 ± 0.13 | 2.89 ± 0.13 | 2.75 ± 0.18 | 3.1 ± 0.085
EDGPRPFKVFLDIGLQR [RPL5] | 3 ± 0.068 | 3.17 ± 0.058 | 3.06 ± 0.052 | 3.04 ± 0.033
INKQRVPLSDNAIIEAN [RPL7A] | 2.6 ± 0.058 | 2.61 ± 0.064 | 2.51 ± 0.066 | 2.54 ± 0.053
IKTQQHILPEVPPVENF [TAF14] | 2.21 ± 0.1 | 2.42 ± 0.082 | 2.89 ± 0.086 | 2.95 ± 0.073
AENDVIEATDLGNIASS [BRR2] | 3.05 ± 0.075 | 3.17 ± 0.086 | 3.19 ± 0.064 | 3.27 ± 0.056
LMEEIESLKKELQIFKT [YIL149C/MLP2] | 2.94 ± 0.094 | 2.96 ± 0.068 | 2.82 ± 0.072 | 3.08 ± 0.055
SYDVENVNSRNQLVEPN [SRB5] | 3.21 ± 0.12 | 3.26 ± 0.14 | 3.42 ± 0.13 | 3.34 ± 0.12
MEEEQQRQERLRQQQQQ [RPN10] | 3.4 ± 0.17 | 2.86 ± 0.25 | 3.37 ± 0.066 | 3.39 ± 0.085
SVQINVAKVDEEGRAIP [RPS21A] | 3.28 ± 0.065 | 3.23 ± 0.089 | 3.31 ± 0.048 | 3.32 ± 0.043
DYDVSKKASEISVSSRS [SRP14] | 3.52 ± 0.15 |  | 3.2 ± 0.15 | 2.98 ± 0.21
WTEKKGKNVINRERFIS [SMD2] | 2.54 ± 0.16 | 1.54 ± 0.066 | 1.11 ± 0.19 | 3.05 ± 0.087
THIAESAKEIAKASGCD [MCD1] | 3.16 ± 0.14 | 3.4 ± 0.19 | 3.15 ± 0.049 | 3.34 ± 0.075
